Assay results reported in article PMC11840787, “Detection of an Intermediate in the Unfolding Process of the N-Terminal Domain of TDP-43” (ACS Omega, 2025).

B1: TDP-43 NTD (N-terminal domain of TAR DNA-binding protein 43), noncleaved, 99 residues (domain or fragment, UniProt Q13148 1-77, looked up)
chain: MSEYIRVTEDENDEPIEIPSEDDGTVLLSTVTAQFPGACGLRYRNPVSQCMRGVRLVEGILHAPDAGWGNLVYVVNY
notes: 99 residues in all with the 22-residue N-terminal tag, 11,081.29 Da; A cleaved 78-residue variant was used only for fluorescence kinetics, not for any test of the oligomeric state; also called noncleaved TDP-43 NTD; source: purified

What was measured:
[1] = biological target: TDP-43 (oligomer, isodesmic) NTD (Homo sapiens) (UniProt Q13148); details: cited from earlier work
[2] = biological target: TDP-43 NTD (Homo sapiens) (UniProt Q13148); details: cited from earlier work
[3] = biological target: the molecule itself; assay: dynamic light scattering; 0.5 mg/mL (45 uM) protein in 4.5 M urea, DH recorded every 5 s, linear fit extrapolated to 0 s (unfolding intermediate)

Molecule	Kd [1] [µM]	Kd [2] [µM]	stoichiometry N [3]
TDP-43 NTD (from UniProt Q13148)	40	2.4	
B1			2
